Laboratory results reported in patent publication US20140235701, “NGF APTAMER AND APPLICATION THEREOF” (RIBOMIC INC., published 2014).
Positions count from the first letter of the chain named.

Experiments:
Details in all cases: tags: R&D Systems; chain copies: 2
[1] = target: T1, NGF (nerve growth factor) (Homo sapiens, UniProt P01138 P01138:122-241); experiment: SPR; inhibits NGF-receptor binding; inhibits neurite outgrowth at 10 nM
[2] = target: T1, NGF (nerve growth factor); experiment: SPR; binding maintained on shortening
[3] = target: T1, NGF (nerve growth factor); experiment: cell_activity; neurite; TF-1 0.022
NT-3 (neurotrophin-3) = target: T2, NT-3 (neurotrophin-3) (Homo sapiens, UniProt P20783 P20783:139-257); experiment: cell_activity; TF-1
T2 sequence: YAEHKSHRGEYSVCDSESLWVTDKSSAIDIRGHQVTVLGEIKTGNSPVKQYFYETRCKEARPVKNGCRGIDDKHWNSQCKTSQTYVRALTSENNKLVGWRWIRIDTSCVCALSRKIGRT
From the text: (§1) Using TF-1 cells, whether NGF aptamer inhibits BDNF, NT-3, NT-4 was examined. Human receptor genes (TrkB, TrkC, p75) for respective neurotrophic factors were introduced into TF-1 cells (ATCC Number: CRL-2003), which is a human erythroleukemic cell line, by using a retrovirus vector to give cells that highly express these receptors stably. TF-1 cells introduced with TrkB and p75 were used for the evaluation of inhibitory activity against BDNF, TF-1 cells introduced with TrkC and p75 were used for the evaluation against NT-3, and TF-1 cells introduced with TrkB alone were used for the evaluation against NT-4. These cells were suspended in an RPMI-1640 medium containing 20% fetal bovine serum, and seeded in a white 96 well flat-bottom plate at 1000 cells (50 μL) per well. Thereto was added a mixed solution 50 μL of human BDNF (final concentration 0.074 nM) or NT-3 (final concentration 0.074 nM) or NT-4 (final concentration 0.071 nM) and the aptamer (final concentration 1 μM-0.01 nM), which had been pre-reacted at room temperature for 30 min in a serum-free RPMI-1640 medium, 3 days later, 100 μL of CellTiter-Glo reagent for CellTiter-Glo Luminescent Cell Viability Assay (manufactured by Promega) was added to each well, chemiluminescence was measured by a microplate reader. With the amount of luminescence per well obtained by the addition of BDNF or NT-3 or NT-4 alone and culture of the cells for 3 days as inhibitory activity 0%, and that of the well obtained by culture for 3 days without addition of BDNF or NT-3 or NT-4 as inhibitory activity 100%, the inhibitory activity of the aptamer was calculated from the amount of luminescence per well obtained by culturing with the addition of BDNF or NT-3 or NT-4 and the aptamer in mixture. When the inhibitory activity was 0 or below, ‘0%’ is indicated. The 50% inhibitory concentration (IC₅₀) was determined from the concentrations at two, above and below points sandwiching the 50% inhibitory activity. An IC₅₀ value indicated as “>X” means that the inhibitory activity was not more than 50% when the indicated concentration X was the maximum measured concentration. N.D. means not measured.

NT-4 (neurotrophin-4) = target: T3, NT-4 (neurotrophin-4) (Homo sapiens, UniProt P34130 P34130:81-210); experiment: cell_activity; TF-1
T3 sequence: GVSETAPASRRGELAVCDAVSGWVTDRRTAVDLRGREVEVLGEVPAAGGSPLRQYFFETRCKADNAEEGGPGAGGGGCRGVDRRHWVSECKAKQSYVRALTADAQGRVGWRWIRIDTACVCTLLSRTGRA
From the text: as §1

[4] = target: T1, NGF (nerve growth factor); experiment: cell_activity; neurite; TF-1 <0.03
[5] = target: T1, NGF (nerve growth factor); experiment: cell_activity; neurite; TF-1 0.013
[6] = target: T1, NGF (nerve growth factor); experiment: cell_activity; neurite; TF-1 0.034
[7] = target: T1, NGF (nerve growth factor); experiment: cell_activity; neurite; TF-1 0.021
[8] = target: T1, NGF (nerve growth factor); experiment: cell_activity; neurite; TF-1 0.084
Description: With the neurite length per cell obtained by the addition of NGF alone as inhibitory activity 0%, and that of the cell obtained by NGF free culture for 2 days as inhibitory activity 100%, the inhibitory activity of the aptamer was calculated from the neurite length per cell obtained by culturing with the addition of NGF and the aptamer in mixture.
Two NGF receptor (human TrkA and human p75) genes were introduced into TF-1 cells (ATCC Number: CRL-2003), which is a human erythroleukemic cell line, by using a retrovirus vector to give cells that highly express two receptors simultaneously and stably. The cells were suspended in an RPMI-1640 medium containing 20% fetal bovine serum, and seeded in a white 96 well flat-bottom plate at 1000 cells (50 μL) per well. […] With the amount of luminescence per well obtained by the addition of NGF alone and culture of the cells for 3 days as inhibitory activity 0%, and that of the well obtained by NGF free culture for 3 days as inhibitory activity 100%, the inhibitory activity of the aptamer was calculated from the amount of luminescence per well obtained by culturing with the addition of NGF and the aptamer in mixture.

[9] = target: T1, NGF (nerve growth factor); experiment: cell_activity; neurite; TF-1 0.085
[10] = target: T1, NGF (nerve growth factor); experiment: cell_activity; neurite; TF-1 0.037

T1 sequence (P01138 122-241, one chain of several): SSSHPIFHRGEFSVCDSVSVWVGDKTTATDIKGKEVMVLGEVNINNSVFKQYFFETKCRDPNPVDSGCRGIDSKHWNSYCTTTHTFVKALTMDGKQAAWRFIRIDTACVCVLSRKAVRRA

B1: SEQ ID NO: 6 (ssRNA)
RNA: GGGAGAACUUCGACCAGAAGUGCAAUACUUUCGCGGCAUAUGUGCAAACCUUGCCACGACUAUGUGCGCAUACAUGGAUCCUC
modifications: 2'-F C and U; 2'-OH G; 2'-H (deoxy) A
binding result [1]: binds

B2: SEQ ID NO: 91 (ssRNA)
RNA: GGGUCCUGCCUAAGAGUUUCCGUCUCGUAGGCUGUUACCC
modifications: 2'-F C and U; 2'-OH G; 2'-H (deoxy) A
binding result [2]: binds

B3: SEQ ID NO: 82(47) (ssRNA)
RNA: B2 RNA with C9G, C10A, G30U, G31C
modifications: as 82(25) except 2'-OMe A37
IC50 [3]: 0.046 nM

B4: SEQ ID NO: 158 (ssRNA)
RNA: B2 RNA with C9G, C10A, G30U, G31C, U33T
modifications: as 82(1) except dT33
IC50 (NT-3 (neurotrophin-3)): < 30 nM
IC50 (NT-4 (neurotrophin-4)): < 3 nM
IC50 [4]: 0.1 nM

B5: SEQ ID NO: 79(1) (ssRNA)
RNA: B2 RNA with C9G, C10U, G30A, G31C
modifications: 2'-OMe G (G8,G34 2'-OH), dA, 2'-F C/U; 5',3' idT
IC50 [4]: 0.289 nM

B6: SEQ ID NO: 76(1) (ssRNA)
RNA: B2 RNA with C9A, C10U, G30A, G31U
modifications: 2'-OMe G (G8,G34 2'-OH), dA, 2'-F C/U; 5',3' idT
IC50 [5]: 0.117 nM

B7: SEQ ID NO: 77(1) (ssRNA)
RNA: B2 RNA with C9A, G31U
modifications: 2'-OMe G (G8,G34 2'-OH), dA, 2'-F C/U; 5',3' idT
IC50 [5]: 0.126 nM

B8: SEQ ID NO: 82(46) (ssRNA)
RNA: B2 RNA with C9G, C10A, G30U, G31C
modifications: as 82(25) except 2'-OMe A29
IC50 [3]: 0.033 nM

B9: SEQ ID NO: 82(6) (ssRNA)
RNA: B2 RNA with C9G, C10A, G30U, G31C
modifications: as 82(1) except 2'-OMe C21
IC50 (NT-3 (neurotrophin-3)): < 30 nM
IC50 (NT-4 (neurotrophin-4)): < 3 nM
IC50 [6]: 0.128 nM

B10: SEQ ID NO: 82(42) (ssRNA)
RNA: B2 RNA with C9G, C10A, G30U, G31C
modifications: as 82(25) except 2'-OMe A15
IC50 [7]: 0.037 nM

B11: SEQ ID NO: 82(23) (ssRNA)
RNA: B2 RNA with C9G, C10A, G30U, G31C
modifications: as 82(1) except 2'-OMe U4,C6,U11,C21,U23,C26,U30,C31,C32,U35,C38-40
IC50 (NT-3 (neurotrophin-3)): < 30 nM
IC50 [8]: < 0.1 nM

B12: SEQ ID NO: 156 (ssRNA)
RNA: B2 RNA with C9G, C10A, U17T, G30U, G31C
modifications: as 82(1) except dT17
IC50 (NT-3 (neurotrophin-3)): < 30 nM
IC50 (NT-4 (neurotrophin-4)): < 3 nM
IC50 [9]: < 0.1 nM

B13: SEQ ID NO: 82(13) (ssRNA)
RNA: B2 RNA with C9G, C10A, G30U, G31C
modifications: as 82(1) except 2'-OMe C32
IC50 (NT-3 (neurotrophin-3)): 48.8 nM
IC50 (NT-4 (neurotrophin-4)): 3.06 nM
IC50 [6]: 0.146 nM

B14: SEQ ID NO: 78(4) (printed 76(4) in sequence list) (ssRNA)
RNA: B2 RNA with C9G, U11C, A29G, G31U
modifications: 2'-OMe G (G8,G34 2'-OH), dA, 2'-F C/U except 2'-OMe U4,C6,C10,C11,C21,U23,C26,U28,U31,C32,U35,C38-40; 5',3' idT
IC50 (NT-3 (neurotrophin-3)): 3 nM
IC50 (NT-4 (neurotrophin-4)): < 100 nM
IC50 [7]: 0.037 nM

B15: SEQ ID NO: 82(21) (ssRNA)
RNA: B2 RNA with C9G, C10A, G30U, G31C
modifications: as 82(1) except 2'-OMe U4,C6,U11,C21,U23,U28,U30,C32,U35,C38-40
IC50 (NT-3 (neurotrophin-3)): < 30 nM
IC50 [9]: < 0.1 nM

B16: SEQ ID NO: 82(24) (ssRNA)
RNA: B2 RNA with C9G, C10A, G30U, G31C
modifications: as 82(1) except 2'-OMe U4,C6,U11,C21,U23,U28,U30,C31,C32,U35,C38-40
IC50 (NT-3 (neurotrophin-3)): < 30 nM
IC50 [8]: < 0.1 nM

B17: SEQ ID NO: 92 (ssRNA)
RNA: GGGUCCUGACCAAGAGUUUCCGUCUCGUGGUCUGUACCC
modifications: 2'-F C and U; 2'-OH G; 2'-H (deoxy) A
binding result [2]: binds

B18: SEQ ID NO: 8 (ssRNA)
RNA: GGGAGAACUUCGACCAGAAGAUCCACUGGUACUACGUGACCCCGCAUAGGCAAUCCUGCUUAUGUGCGCAUACAUGGAUCCUC
modifications: 2'-F C and U; 2'-OH G; 2'-H (deoxy) A
binding result [1]: binds

B19: SEQ ID NO: 166 (ssRNA)
RNA: GGGUCCUGGAUAAGAGTUUCCGUCUCGUAUCCTGUUACCC
modifications: as 82(48) except dT17,dT33,dU36
IC50 [10]: 0.113 nM

B20: SEQ ID NO: 167 (ssRNA)
RNA: B19 RNA
modifications: as 82(48) except dT17,dT33
IC50 [10]: 0.128 nM
